Measured values reported in US20230348603A1 (VERSEAU THERAPEUTICS, published 2023).

Columns and labels:
Human VSIG4-L-Fc [1] = target: T1, Human VSIG4-L-Fc (human); assay: BLI binning on hVSIG4-L-Fc, competitor 15C03 first;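 also: normalized to binding of second antibody without first competitor antibody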
T1 construct: also called hVSIG4-L-Fc; hVSIG4-L

Human VSIG4-L-Fc [2] = target: T1, Human VSIG4-L-Fc; assay: ligand blocking of C3b, IgG
Human VSIG4-S-Fc = target: T2, Human VSIG4-S-Fc (human); assay: ELISA, IgG 50 nM on coated antigen;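 also: Mouse-human chimeric IgG4 antibodies incubated 1 h on plate-coated VSIG4 proteins, bound IgG detected with HRP-labelled anti-human IgG, irrelevant antibody and protein as specificity controls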
T2 construct: short isoform ECD fused to human Fc1; also called hVSIG4-S

Mouse VSIG4-His = target: T3, Mouse VSIG4-His (mouse); assay: ELISA, IgG 50 nM on coated antigen;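 also: Mouse-human chimeric IgG4 antibodies incubated 1 h on plate-coated VSIG4 proteins, bound IgG detected with HRP-labelled anti-human IgG, irrelevant antibody and protein as specificity controls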
T3 construct: ECD with His tag; also called mVSIG4
T3 chain: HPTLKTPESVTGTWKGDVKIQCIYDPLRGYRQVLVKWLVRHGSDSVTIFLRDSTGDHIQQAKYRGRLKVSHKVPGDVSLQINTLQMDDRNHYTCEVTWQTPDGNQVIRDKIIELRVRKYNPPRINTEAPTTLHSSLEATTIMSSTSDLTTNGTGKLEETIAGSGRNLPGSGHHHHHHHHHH

Human VSIG4-L-Fc [3] = target: T1, Human VSIG4-L-Fc; assay: ELISA, IgG 50 nM on coated antigen;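 also: Mouse-human chimeric IgG4 antibodies incubated 1 h on plate-coated VSIG4 proteins, bound IgG detected with HRP-labelled anti-human IgG, irrelevant antibody and protein as specificity controls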
[4] = target: T4, Cynomolgus Monkey VSIG4-L-His (cynomolgus monkey); assay: ELISA, IgG 50 nM on coated antigen;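 also: Mouse-human chimeric IgG4 antibodies incubated 1 h on plate-coated VSIG4 proteins, bound IgG detected with HRP-labelled anti-human IgG, irrelevant antibody and protein as specificity controls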
T4 construct: ECD with His tag; also called cyVSIG4-L; cyno VSIG4-L-His
T4 chain: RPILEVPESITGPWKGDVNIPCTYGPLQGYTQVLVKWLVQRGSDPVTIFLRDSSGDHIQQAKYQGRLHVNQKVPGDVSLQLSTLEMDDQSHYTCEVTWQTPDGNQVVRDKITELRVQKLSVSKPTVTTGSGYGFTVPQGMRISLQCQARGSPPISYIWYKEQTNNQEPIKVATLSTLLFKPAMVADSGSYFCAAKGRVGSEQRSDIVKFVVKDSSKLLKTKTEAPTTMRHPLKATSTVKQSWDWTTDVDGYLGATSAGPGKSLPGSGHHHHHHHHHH

[5] = target: T5, Human VSIG4-L-CHO (human VSIG4 long isoform on CHO-K1 cells) (human, UniProt Q9Y279 20-399); assay: flow cytometry, CHO-K1 cells expressing hVSIG4-L
T5 construct: also called hVSIG4-L (flow cytometry)
T5 sequence: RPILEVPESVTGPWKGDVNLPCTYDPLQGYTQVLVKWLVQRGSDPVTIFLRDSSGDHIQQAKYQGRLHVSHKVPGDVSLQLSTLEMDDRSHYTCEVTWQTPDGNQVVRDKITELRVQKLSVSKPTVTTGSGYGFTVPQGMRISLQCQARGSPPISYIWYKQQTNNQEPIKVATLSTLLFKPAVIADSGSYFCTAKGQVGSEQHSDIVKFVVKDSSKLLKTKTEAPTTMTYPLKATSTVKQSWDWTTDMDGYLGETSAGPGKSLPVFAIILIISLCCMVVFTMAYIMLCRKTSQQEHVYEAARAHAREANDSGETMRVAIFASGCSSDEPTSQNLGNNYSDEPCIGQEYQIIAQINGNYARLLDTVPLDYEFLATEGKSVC

Human VSIG4-L-His = target: T6, Human VSIG4-L-His (human, UniProt Q9Y279 20-283); assay: SPR (FJB)
T6 construct: long isoform ECD with His tag; also called hVSIG4-L
T6 sequence: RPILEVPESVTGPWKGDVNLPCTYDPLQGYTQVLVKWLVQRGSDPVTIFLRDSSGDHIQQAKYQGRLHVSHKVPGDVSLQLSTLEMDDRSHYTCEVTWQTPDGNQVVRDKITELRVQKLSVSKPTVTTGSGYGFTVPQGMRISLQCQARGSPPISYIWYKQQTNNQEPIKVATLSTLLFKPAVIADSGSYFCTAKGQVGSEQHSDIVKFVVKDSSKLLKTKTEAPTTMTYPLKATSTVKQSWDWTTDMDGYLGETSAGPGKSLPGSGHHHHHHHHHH

[6] = target: T4, Cynomolgus Monkey VSIG4-L-His; assay: SPR (FJB)
Human VSIG4-L-Fc [7] = target: T1, Human VSIG4-L-Fc; assay: BLI binning on hVSIG4-L-Fc, competitor 15C04 first;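 also: normalized to binding of second antibody without first competitor antibody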

T1 sequence (chain, as listed by the source limits assumed): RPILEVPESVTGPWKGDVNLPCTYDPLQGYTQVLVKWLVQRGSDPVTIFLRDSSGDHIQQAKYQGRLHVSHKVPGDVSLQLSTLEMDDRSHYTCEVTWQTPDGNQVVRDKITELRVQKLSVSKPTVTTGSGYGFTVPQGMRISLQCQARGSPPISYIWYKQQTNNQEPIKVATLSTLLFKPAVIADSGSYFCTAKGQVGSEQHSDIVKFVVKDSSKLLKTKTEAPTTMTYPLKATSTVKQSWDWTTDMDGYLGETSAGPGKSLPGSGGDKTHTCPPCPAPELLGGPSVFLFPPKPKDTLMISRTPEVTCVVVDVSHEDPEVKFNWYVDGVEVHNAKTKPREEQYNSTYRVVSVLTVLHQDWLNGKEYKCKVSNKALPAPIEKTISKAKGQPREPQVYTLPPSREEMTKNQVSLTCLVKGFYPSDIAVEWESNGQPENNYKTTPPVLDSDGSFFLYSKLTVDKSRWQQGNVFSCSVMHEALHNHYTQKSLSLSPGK
T2 sequence (chain, as listed by the source limits assumed): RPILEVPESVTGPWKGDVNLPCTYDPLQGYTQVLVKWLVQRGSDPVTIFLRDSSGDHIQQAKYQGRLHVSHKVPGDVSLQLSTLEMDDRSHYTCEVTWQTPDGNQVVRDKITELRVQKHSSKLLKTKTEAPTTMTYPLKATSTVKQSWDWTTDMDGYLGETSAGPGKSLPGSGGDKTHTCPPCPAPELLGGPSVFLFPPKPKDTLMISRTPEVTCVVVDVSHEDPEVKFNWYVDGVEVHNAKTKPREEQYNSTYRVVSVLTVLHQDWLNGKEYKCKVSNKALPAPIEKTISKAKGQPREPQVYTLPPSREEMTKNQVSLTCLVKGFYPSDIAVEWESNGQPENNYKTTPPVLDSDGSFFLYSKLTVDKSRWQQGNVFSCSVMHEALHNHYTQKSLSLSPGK

B1: 12A12 mouse/human chimeric IgG4 (S228P) kappa (antibody, V domains shown)
VH: QVQMKQSGAELAKPGASVKMSCKASGYTFTNYWMHWVKQRPGQGLEWIGYINPSTGYTDYNQNFKDRATLTADKSSSTAYMQLSSLTSEDSAVYYCIRGSDYYGRDYWGQGTTLTVSS
VL: DIQMTQTTSSLSASLGDRVTISCRASQDISNYLNWYQQKPDGTLKLLIYYTSRLHSGVPSRFSGSGSGTDYSLTISNLEQEDIATYFCRQGNTLPWTFGGGTKLEIKR
Human VSIG4-L-Fc [1]
  normalized maximum binding nm shift: 0.65 normalized
Human VSIG4-L-Fc [2]
  Percent Blocking C3b: 96%
Human VSIG4-S-Fc
  ELISA OD450: 4.18 OD450
Mouse VSIG4-His
  ELISA OD450: 0.054 OD450
Human VSIG4-L-Fc [3]
  ELISA OD450: 4.45 OD450
[4]
  ELISA OD450: 4.4 OD450
[5]
  EC50: 4.4 nM
Human VSIG4-L-His
  Kd: 8.6 nM
[6]
  Kd: 6.8 nM
Human VSIG4-L-Fc [7]
  normalized maximum binding nm shift: 0.76 normalized
